According to patent publication US20240409663A1 (CONCEPT TO MEDICINE BIOTECH, published 2024):

How the values were obtained:
human GPC3 on cells [1] = biological target: T1, human GPC3 on cells (human, UniProt P51654 25-554); experiment: FACS, HEPG2 cells
T1 construct: whole, on cells; over-expressed on CHOK1 cells or endogenous on HEPG2, Hep3B and Huh-7 hepatocellular carcinoma cells; the cell line is named under assay; also called GPC3-CHOK1 cells; human GPC3 over-expressed CHOK1 cells
Method: (§1) To evaluate the antigen binding property, the humanized antibodies were analyzed for their binding to human GPC3 over-expressed CHOK1 cells, HEPG2 cells, Hep3B cells and Huh-7 cells by FACS. Briefly, GPC3-CHOK1 cells, HEPG2 cells, Hep3B cells and Huh-7 cells were firstly incubated with Fc blocking reagent at 4° C. for 15 mins. Cells were washed by FACS buffer and divided to each well with 4-fold serially diluted humanized antibodies starting at 10 μg/mL at 4° C. for 60 mins. Cells were washed by FACS buffer and fixed with 2% PFA at RT for 15 mins. […] The 16 humanized antibodies were separated into two plates.

human GPC3 on cells [2] = biological target: T1, human GPC3 on cells; experiment: FACS, Hep3B cells
Method: as §1

[3] = biological target: T2, human GPC3-his tag protein (human, UniProt P51654 25-559, limits assumed); experiment: SPR Biacore 8K, mAb captured, affinity ranking
T2 construct: recombinant soluble antigen used as analyte in all Biacore runs; also called recombinant GPC3 protein; rhGPC3-His; not shown: His tag
Method: To evaluate antigen binding activity, the chimeric antibody's affinity was measured by Biacore 8K. A serial dilution of human GPC3-his tag protein was injected over captured chimeric antibody 52H5D3B8-6 #-VH+VL for 3 mins at a flow rate of 30 μl/min. The antigen was allowed to dissociate for 720 s. Among the multi detection doses, two concentrations with most close affinity to the chimeric antibody's affinity were chosen for the 16 humanized antibodies' affinity detection.

[4] = biological target: T2, human GPC3-his tag protein; experiment: SPR Biacore, mAb captured on CM5, GPC3-his dilution series (full kinetics)
Method: The binding of the humanized antibodies to recombinant GPC3 protein (human GPC3-his tag) was tested by Biacore using a capture method. 52H5D3B8-6 #-V+VL, 52H5D3B8-6 #-VH1+VL1, 52H5D3B8-6 #-VH1+VL3, 52H5D3B8-6 #-V1+VL4, 52H5D3B8-6 #-VH2+VL4, 52H5D3B8-6 #-VH3+VL1, 52H5D3B8-6 #-VH3+VL3 mAbs were captured using CM5 sensor chip. A serial dilution of human GPC3-his tag protein was injected over captured antibody for 2 mins at a flow rate of […]. The antigen was allowed to dissociate for 360 s. All the experiments were carried out on a Biacore T200.

human GPC3 on cells [5] = biological target: T1, human GPC3 on cells; experiment: FACS, GPC3-CHOK1 cells
Method: as §1

human GPC3 on cells [6] = biological target: T1, human GPC3 on cells; experiment: FACS, Huh-7 cells
Method: as §1

human GPC3 on cells [7] = biological target: T1, human GPC3 on cells; experiment: FACS, GPC3-CHOK1 cells; remark: listed apart in the source
Method: as §1, with “CHOK1” for “CHOK1 cells, HEPG2 cells, Hep3B”, “GPC3-CHOK1” for “GPC3-CHOK1 cells, HEPG2 cells, Hep3B”, “As different plates might affect the EC50 of 52H5D3B8-VH+VL, the 12” for “The 16”

[8] = biological target: T2, human GPC3-his tag protein; experiment: SPR Biacore 8K, mAb captured, affinity ranking; remark: listed apart in the source
Method: To evaluate antigen binding activity, the chimeric antibody's affinity was measured by Biacore 8K. Two concentrations with most close affinity to the chimeric antibody's affinity were chosen for the 12 humanized antibodies' affinity detection. Human GPC3-his tag protein was injected over captured antibody for 3 mins at a flow rate of 30 μl/min. The antigen was allowed to dissociate for 720 s.

human GPC3 on cells [9] = biological target: T1, human GPC3 on cells; experiment: FACS, Huh-7 cells; remark: listed apart in the source
Method: as §1, with “CHOK1” for “CHOK1 cells, HEPG2 cells, Hep3B”, “GPC3-CHOK1” for “GPC3-CHOK1 cells, HEPG2 cells, Hep3B”, “As different plates might affect the EC50 of 52H5D3B8-VH+VL, the 12” for “The 16”

Row | Binder | EC50 (human GPC3 on cells [1]) | EC50 (human GPC3 on cells [2]) | Kd [3] | koff [3] | kon [3] | Kd [4] | koff [4] | kon [4] | EC50 (human GPC3 on cells [5]) | EC50 (human GPC3 on cells [6]) | EC50 (human GPC3 on cells [7]) | Kd [8] | koff [8] | kon [8] | EC50 (human GPC3 on cells [9])
1 | 52H5D3B8-6#-VH1+VL4 (antibody, V domains shown, humanized) VH: QVQLVQSGAEVKKPGASVKVSCKASGYTFTDYEMHWVRQAPGQGLEWMGAIHPGSGGTAYNQKFKGRVTMTRDTSTSTVYMELSSLRSEDTAVYYCARYYSYAYWGQGTLVTVSS VL: DIVMTQTPLSLSVTPGQPASISCRSSQSLVHSNGNTYLQWYLQKPGQSPKLLIYKVSNRFSGVPDRFSGSGSGTDFTLKISRVEAEDVGVYFCFQSIHVPYTFGGGTKLEIK | 0.0391 µg/mL | 0.0545 µg/mL | 1.74 nM | 0.000947 s⁻¹ | 546000 M⁻¹ s⁻¹ | 1.85 nM | 0.000984 s⁻¹ | 532000 M⁻¹ s⁻¹ | 0.0308 µg/mL | 0.0268 µg/mL | – | – | – | – | –
2 | Hu 52H5D3B8-2 (antibody, V domains shown, humanized 52H5D3B8; also called 52H5D3B8 VH0 + VL1) VH: EVQLVQSGAEVKKPGASVKVSCKASGYTFTDYEMHWVRQAPGQGLEWMGAIHPGSGGTAYNQKFKGRVTMTRDTSISTAYMELSRLRSDDTAVYYCARFYSYAYWGQGTLVTVSS VL: DVVMTQTPLSLSVTPGQPASISCRSSQSLVHSNGNTYLQWYLQKPGQSPQLLIYKVSNRFSGVPDRFSGSGSGTDFTLKISRVEAEDVGVYFCSQSIHVPYTFGGGTKVEIK | – | – | – | – | – | – | – | – | – | – | 0.0338 µg/mL | 5.71 nM | 0.00163 s⁻¹ | 285000 M⁻¹ s⁻¹ | 0.0195 µg/mL
3 | Hu 52H5D3B8-4 (antibody, V domains shown, humanized 52H5D3B8; also called 52H5D3B8 VH1 + VL1) VH: EVQLVQSGAEVKKPGASVKVSCKASGYTFTDYEMHWVRQAPGQGLEWMGAIHPGSGGTAYNQKFKGRVTMTRDTSISTAYMELSRLRSDDTAVYYCTRFYSYAYWGQGTLVTVSS VL: DVVMTQTPLSLSVTPGQPASISCRSSQSLVHSNGNTYLQWYLQKPGQSPQLLIYKVSNRFSGVPDRFSGSGSGTDFTLKISRVEAEDVGVYFCSQSIHVPYTFGGGTKVEIK | – | – | – | – | – | – | – | – | – | – | 0.0324 µg/mL | 4.6 nM | 0.00164 s⁻¹ | 357000 M⁻¹ s⁻¹ | 0.0196 µg/mL
4 | Hu 52H5D3B8-1 (antibody, V domains shown, humanized 52H5D3B8; also called 52H5D3B8 VH0 + VL0) VH: EVQLVQSGAEVKKPGASVKVSCKASGYTFTDYEMHWVRQAPGQGLEWMGAIHPGSGGTAYNQKFKGRVTMTRDTSISTAYMELSRLRSDDTAVYYCARFYSYAYWGQGTLVTVSS VL: DVVMTQTPLSLSVTPGQPASISCRSSQSLVHSNGNTYLQWYLQKPGQSPQLLIYKVSNRFSGVPDRFSGSGSGTDFTLKISRVEAEDVGVYYCSQSIHVPYTFGGGTKVEIK | – | – | – | – | – | – | – | – | – | – | 0.0404 µg/mL | 6.33 nM | 0.00161 s⁻¹ | 255000 M⁻¹ s⁻¹ | 0.0243 µg/mL
5 | 52H5D3B8-6#-VH2+VL4 (antibody, V domains shown, humanized) VH: QVQLVQSGAEVKKPGASVKVSCKASGYTFTDYEMHWVRQAPGQGLEWIGAIHPGSGGTAYNQKFKGRVTMTADTSTSTVYMELSSLRSEDTAVYYCTRYYSYAYWGQGTLVTVSS VL: DIVMTQTPLSLSVTPGQPASISCRSSQSLVHSNGNTYLQWYLQKPGQSPKLLIYKVSNRFSGVPDRFSGSGSGTDFTLKISRVEAEDVGVYFCFQSIHVPYTFGGGTKLEIK | 0.0438 µg/mL | 0.0632 µg/mL | 0.994 nM | 0.000645 s⁻¹ | 648000 M⁻¹ s⁻¹ | 1.12 nM | 0.000669 s⁻¹ | 599000 M⁻¹ s⁻¹ | 0.041 µg/mL | 0.0381 µg/mL | – | – | – | – | –
6 | Hu 52H5D3B8-3 (antibody, V domains shown, humanized 52H5D3B8; also called 52H5D3B8 VH1 + VL0) VH: EVQLVQSGAEVKKPGASVKVSCKASGYTFTDYEMHWVRQAPGQGLEWMGAIHPGSGGTAYNQKFKGRVTMTRDTSISTAYMELSRLRSDDTAVYYCTRFYSYAYWGQGTLVTVSS VL: DVVMTQTPLSLSVTPGQPASISCRSSQSLVHSNGNTYLQWYLQKPGQSPQLLIYKVSNRFSGVPDRFSGSGSGTDFTLKISRVEAEDVGVYYCSQSIHVPYTFGGGTKVEIK | – | – | – | – | – | – | – | – | – | – | 0.0387 µg/mL | 4.34 nM | 0.00176 s⁻¹ | 405000 M⁻¹ s⁻¹ | 0.0213 µg/mL
7 | Hu 52H5D3B8-5 (antibody, V domains shown, humanized 52H5D3B8; also called 52H5D3B8 VH2 + VL0) VH: EVQLVQSGAEVKKPGASVKVSCKASGYTFTDYEMHWVRQAPGQGLEWMGAIHPGSGGTAYNQKFKGRVTMTADTSISTAYMELSRLRSDDTAVYYCTRFYSYAYWGQGTLVTVSS VL: DVVMTQTPLSLSVTPGQPASISCRSSQSLVHSNGNTYLQWYLQKPGQSPQLLIYKVSNRFSGVPDRFSGSGSGTDFTLKISRVEAEDVGVYYCSQSIHVPYTFGGGTKVEIK | – | – | – | – | – | – | – | – | – | – | 0.0544 µg/mL | 2.87 nM | 0.000916 s⁻¹ | 319000 M⁻¹ s⁻¹ | 0.0402 µg/mL
8 | 52H5D3B8-6#-VH3+VL1 (antibody, V domains shown, humanized) VH: QVQLVQSGAEVKKPGASVKVSCKALGYTFTDYEMHWVKQAPGQGLEWIGAIHPGSGGTAYNQKFKGRVTLTADTSTSTVYMELSSLRSEDTAVYYCTRYYSYAYWGQGTLVTVSS VL: DIVMTQTPLSLSVTPGQPASISCRSSQSLVHSNGNTYLQWYLQKPGQSPQLLIYKVSNRFSGVPDRFSGSGSGTDFTLKISRVEAEDVGVYYCFQSIHVPYTFGGGTKLEIK | 0.0471 µg/mL | 0.0738 µg/mL | 0.838 nM | 0.000578 s⁻¹ | 689000 M⁻¹ s⁻¹ | 1 nM | 0.000579 s⁻¹ | 579000 M⁻¹ s⁻¹ | 0.0373 µg/mL | 0.0413 µg/mL | – | – | – | – | –
9 | Hu 52H5D3B8-9 (antibody, V domains shown, humanized 52H5D3B8; also called 52H5D3B8 VH4 + VL0) VH: EVQLVQSGAEVKKPGASVKVSCKASGYTFTDYEMHWVRQAPGQGLEWIGAIHPGSGGTAYNQKFKGRVTLTADKSISTAYMELSRLRSDDTAVYYCTRFYSYAYWGQGTLVTVSS VL: DVVMTQTPLSLSVTPGQPASISCRSSQSLVHSNGNTYLQWYLQKPGQSPQLLIYKVSNRFSGVPDRFSGSGSGTDFTLKISRVEAEDVGVYYCSQSIHVPYTFGGGTKVEIK | – | – | – | – | – | – | – | – | – | – | 0.0572 µg/mL | 4.18 nM | 0.00102 s⁻¹ | 244000 M⁻¹ s⁻¹ | 0.0348 µg/mL
10 | Hu 52H5D3B8-6 (antibody, V domains shown, humanized 52H5D3B8; also called 52H5D3B8 VH2 + VL1) VH: EVQLVQSGAEVKKPGASVKVSCKASGYTFTDYEMHWVRQAPGQGLEWMGAIHPGSGGTAYNQKFKGRVTMTADTSISTAYMELSRLRSDDTAVYYCTRFYSYAYWGQGTLVTVSS VL: DVVMTQTPLSLSVTPGQPASISCRSSQSLVHSNGNTYLQWYLQKPGQSPQLLIYKVSNRFSGVPDRFSGSGSGTDFTLKISRVEAEDVGVYFCSQSIHVPYTFGGGTKVEIK | – | – | – | – | – | – | – | – | – | – | 0.0509 µg/mL | 2.94 nM | 0.000961 s⁻¹ | 327000 M⁻¹ s⁻¹ | 0.0295 µg/mL
